Reference: the DeepSol protein solubility set

Assay: soluble on expression in E. coli; label from the status in PepcDB or PDB records

| Sequence | soluble on expression in E. coli |
| --- | --- |
| MQTNLERIKKHIEKLDTFTATPGQGTTRLTYSKEDLDARNYLKQEMAKVGLTVSEDAIGNIYGRLEGESPDLPAVIVGSHFDSVPNGGAFDGPAGVITGLEVASVFHEQQIKPHFPLEIIAMVEEEGSRFGAGLLASRAITGKVTTEMLHEMKDIDGITATDAMAKLGFNANRVHRAIRTKESVKAFIELHIEQGPILENASEDVALVDTVVGLTQIKVTVKGQAGHAGTTPMLDRKDALVSAVEILGQLPELAIQEGGGTVLTVGKLNVYPNGANVIPDKVIFTVDIRAKDEIHVQNTLAKTKEIIQATEKNGITCEIKDMIYQQPTHLSKEIHQALTESADQLGFKYRTMVSGAGHDAMIFASLTEVGLIFVPSHNGISHAPEEWTDYDKLQKGIEVVLKTVKKWTEESANESENKTNSFK | not soluble |
| MGSDKIHHHHHHMRNILIALCLSLTALNSHAADQIERMAADKMQSYKESKINWKDDPILPKGAKSALILGDPSKPGVFIAWLKFPANYPIPAHTHPFTEVITVLKGKLGNGMGEVLDKKKGETLNVGESFVLPAGHAHYVWTGNEETIIELIATGPWDITYSNPKDDPRTK | not soluble |
| MGSDKIHHHHHHMSFFDTLSGLSREQLRMALYSTTPAQVETAIEGEQGNLGHLLALLSPAAEEYLEPMAQRAAALTRQRFGHNIGLYLPLYLSNLCANECDYCGFTMSNKLKRKVLSHDELAAEMAVIKPQGFDSILLVSGEHETKVGIEYFADILPLVKAEFSHVAMEVQPLSREHYEILVEKGLDAVMLYQETYDPETYRRHHLRGNKQDYGYRLASPERIAQAGVDKIGLGVLLGLDDWRMDALLMGYHLDYLERRFWRSRYSISLPRLRPCVGGITPKVQLTDKGLVQLICAFRLFNEQLEISLSTRETPSLRDNLLGLGITQMSAGSRTEPGGYVNPAAQLDQFEISDERSAAEVASVLRSRGFTPVWKDWEAGWIGAG | not soluble |
| MGSDKIHHHHHHMTGDATPPVGLRFAQDKTHEVFMKRYRHTQILALLETRSAIRATEAAEMLGVSVGTIRRDMAELEAGGYLNRTHGGAFAAIEGEAGFMRRTCWNRDKKRVIGQAAAAHISSGSVVFIDGGTTPEAMLPFLVEKTSLTVVTCGLNIALQLLRWPYISTILLGGEVHAESRTVTGTLPVTQLDSFGMRFDMAVIATAGISAEHGATNRMLERLALKQLVLRNSASSILVGDSSKVNCAFLGRVAPLSAFSLCIMDDDLTDEQKAKLSEAGRFEFVPLEGSRRR | not soluble |
| MLQKYSIIVLCCSAVLARVPVAKNCPTGWTWFLRSRGGWCMKVFTEALNQPSAEAKCKAAEAVLAGIQNKEEVAWMSKELTGTMWIGTKRTPPCMNSGVTKQCSQITSYYWTDGSTVGVQGFYWNSGEPNNQGGQGCAKLITSSSVLDDVACTTELTNGYVCGKIATF | not soluble |
| MKDPLLNSLIYVSRYYGLANSPEALVNGLPLSDGKLTPFLLPRAAERAGLVAKENRAELEKISSLILPAILVLKGGDSCVLNSINMETREAEVTTLESGMVPISIPLEDLLEQYTGRYFLVKKQFRFDERSPEVLKTKEGHWFWSTLWQSKRIYRD | not soluble |
| MSLVKNEEKLLEVINKYELNSIFSQEIMPFLELHMFKKNEHICFMNEELNYLYFFVHGKAKVYKTLPNGKSLLLEFYEPVQLIGDLELISKIKANCNVKALKSSLCIAIPIQAVNSIALKDLNFLMYITKNLSNKLAKCSVTSSITITYPLETKLASYLLAMNSNNIIMIDNYSNLADLLGTSYRHLNRVLNKLVEKGIILKDKNEIKILNKEELENICVDLNEGHHHHHH | soluble |
| MGSDKIHHHHHHMTTDYRLTSDADREAFYQLYQYAFNNHDTPARRRFFMDRYQHGWIYGRHDHGQLVSGLYSLPLAVNFHGVTYRMNGIGDVMSAPEYAGQGGAGQLLTTALTEMAANHVTLSYLAPFAYGYYRRFGYEHVFNHAHQVMAAPDLPRVKPTDWSGTITRYGNDGLAQINDFYARQPQNQCGGLIRPAWWQHYLTLKHHWSVAIYRNAAANIEGYLIYERQATNFAIQEWVTSTPTAFERLANFITKHGTTFETFSYDSPSATNGLDLLADPYRLKVTVQPYMMARIVDLYDFIKRYPFLTDIQPIRLAVSDATLPANQGIWSLTRHNGQVTLNRVSDQLTGPADIQLTIQQLTTACFGTQSLARAYQHGLITGDVNAINRLDTSLVKERPALIDYF | not soluble |
| VTYNLEKRPTTIVLINDTPLNVLLDTGADTSVLTTAHYNRLKYRGRKYQGTGIGGVGGNVETFSTPVTIKKKGRHIKTRMLVADIPVTILGRDILQDLGAKLVL | soluble |
| MSFFKKLAASAGIGAAKVDTILEKDAYFPGEEVQGTVHVKGGKIAQDIRYIDLQLSTRYVIVKDDEEHRKYATIHSFRVTGSFTIQPGEEHQFPFTFTLPLDTPITVGKVEVAVVTDLDIQGGIDKSDHDRIFVEAHPWIENVLEAIENLGFRLNEADCEQAPYFQRRFPFVQEFEFVPTSGYYRQMLDELELIFLLGEDGLEIIFEVDRRARGLRGWLEEMYNDGEQLVRVRFSQSELEDAEELEEVLEEILDQYVE | soluble |
| MVLEVNQAIVNESLQTEQVMEQLSSTVDVIVDNIEKYTNAARYGKGNNYALNNLRTAVQNQFPLVDWLLSTSLSQMIENAWQNGSLPTVTDEDGNVYLKAPLNVFTTPPKDTKGECCWLPFDIAACGGKAPINILCLKDCVDMLNHLLDRKLKVQSNDLIGFFKQAGQTYEEVRDFMNRESMAFYTANTIVNGQLDVTTPILKKFHGLMEILKRPEVFKMQGTNILAAFDSIGYRMDVLGGSFIFAAHPLTVASIKNAIRPNRYGILPDGWTINGESIFYKGAQVLPDKTVPVDVENGTGVIWQLSGESVGVFLGTTLRPAEDYIIRNQFTTTNDVNKGCATECDIYYNLGSVVTNNVARLAVITDVPLAAGINAYSLANLLDRVYVETLAP | not soluble |
| MSKPMKILLANPRGFCAGVDRAISIVERALELYQPPIYVRHEVVHNRFVVEGLKQRGARFVEELNEVPDDNIVIFSAHGVSQAVRQEAKERSLTVFDATCPLVTKVHMEVARASRKHMEVVLIGHAGHPEVEGTMGQYASDTGGMYLVEKPEDVVSLQAKVKDPSNLHYVSQTTLSVDETADVIDELRRVFPKIQGPRKDDICYATQNRQDAVRILAEQVDVMVVVGSKNSSNSTRLKELAEKLGTPGYLIDCPQDIDPEWFVDAQLIGVTAGASAPEELVNQILDRIKELGATSVEEVLGREENMFFEVPKELQIKQVD | soluble |
| MLITERIYVLEDVDVQAFLGVNNSNLMLLRTLFPKLRLVAHHNVLKIMGDSRETDRFLEVLEPMVAYCREYNLLPEDVILRIAQGAKLPADDVPKHLILHGTGGKSIIARGDNQQKLVEAFEANDLVFAIGPAGTGKTFVAISLAVRALKSKQVRRIILSRPAVEAGEKLGFLPGEMKDKLDPYLQPLYDALEEMIPAVKLKEYIENNIIQIAPLAYMRGRTLNDAVVILDEAQNTTELQMKMFLTRLGANAKMIVTGDITQTDLPRGVHSGLRQALNILQGTRGIGYIAFQRADIVRHPLVQRVVDAYDRYDAERKKEAEAAAVVAQTI | not soluble |
| MSLSSGGGQFIKPASGILTSGFSERTNPVTGKYESHKGQDIAGGGTVTVSAAASGTVVFSGFGASGSGFGGYGYVVKIDHGNGFQTLYGHMRAGSLKVVTGQQVSQGQPIGIMGSTGQSTGQHLHFEIHKNGIPVDPAPYIEGHHHHHH | soluble |
| VSGAHTDVRPELRKLAQAILDGIDPAVRVAAAMASGGGPGTGKCQQVWCPLCALAALVTGEQHPLLTVIADHSLALLEVIRAIVDDIDRSAKPPPEGPPGGGQTGASGGENTNGEGSMKSHYQAIPVTIEE | not soluble |
| MSLNVNFFVTCIGDALKSRMARDSVLLLEKLGCRVNFPEKQGCCGQPAINSGYIKEAIPGMKNLIAALEDNDDPIISPAGSCTYAVKSYPTYLADEPEWASRAEKVAARMQDLTSFIVNTLGVVDVGASLQGRAVYHPSCSLARKLGVKDEPLTLLKNVRGLELLTFAEQDTCCGFGGTFSVKMAEISGEMVKEKVAHLMEVRPEYLIGADVSCLLNISGRLQREGQKVKVMHIAEVLMSREGHHHHHH | not soluble |
| MERMMLIAFDLEGTLTDMVSWELLHKKFETCGLAKKNAELFFSGRISYEEWAKLDASLWKGRRREEVEEVFKEVSLKDYAEELFRWLKEKGFKTAIITGGLMCLAKKVAEKLNPDYVYANELVFNEKGEITGDVIVRVTFDNKGEILERLKRELNPTLTVAVGDWKNDLPMFEVADISISLGEDHADYLAKDLREVKKILKEVLLETEKL | soluble |
